Experimental data: paper PMC10631449 (Journal of medicinal chemistry, 2023)
Bridge positions count the residues as written; N and C are the ends. Square brackets hold non-standard residues; d marks the D form. Peptide text beside a SMILES is read from it. dPhe(4-I) = N[C@H](Cc1ccc(I)cc1)C(=O)O; 2Nal = N[C@@H](Cc1ccc2ccccc2c1)C(=O)O; hArg = N=C(N)NCCCC[C@H](N)C(=O)O; Cit = NC(=O)NCCC[C@H](N)C(=O)O; Nle = CCCC[C@H](N)C(=O)O; Orn = NCCC[C@H](N)C(=O)O; Dab = NCC[C@H](N)C(=O)O; Dap = NC[C@H](N)C(=O)O

What was measured:
[1] = biological target: mMC3R (Mus musculus, UniProt P33033); assay: AlphaScreen cAMP agonist assay, HEK293 cells stably expressing mMC3R; assay type: cell-based
mMC3R, sequence (P33033 whole entry): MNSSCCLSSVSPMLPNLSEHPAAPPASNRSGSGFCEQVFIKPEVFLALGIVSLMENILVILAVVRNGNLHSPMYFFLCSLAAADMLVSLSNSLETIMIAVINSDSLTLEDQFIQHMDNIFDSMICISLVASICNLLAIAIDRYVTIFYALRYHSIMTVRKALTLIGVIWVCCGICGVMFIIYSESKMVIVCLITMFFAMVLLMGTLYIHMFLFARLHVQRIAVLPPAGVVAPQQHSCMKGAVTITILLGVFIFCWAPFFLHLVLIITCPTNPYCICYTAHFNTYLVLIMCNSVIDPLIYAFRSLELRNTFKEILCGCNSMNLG

[2] = Body weight after intrathecal; assay type: in vivo; conditions: t = 0, 24 and 48 h; 10 or 15 nmol/mouse IT
[3] = biological target: mMC5R (Mus musculus, UniProt P41149); conditions: read-out: antagonist Ki mMC5R; cited from earlier work
mMC5R, sequence (P41149 whole entry): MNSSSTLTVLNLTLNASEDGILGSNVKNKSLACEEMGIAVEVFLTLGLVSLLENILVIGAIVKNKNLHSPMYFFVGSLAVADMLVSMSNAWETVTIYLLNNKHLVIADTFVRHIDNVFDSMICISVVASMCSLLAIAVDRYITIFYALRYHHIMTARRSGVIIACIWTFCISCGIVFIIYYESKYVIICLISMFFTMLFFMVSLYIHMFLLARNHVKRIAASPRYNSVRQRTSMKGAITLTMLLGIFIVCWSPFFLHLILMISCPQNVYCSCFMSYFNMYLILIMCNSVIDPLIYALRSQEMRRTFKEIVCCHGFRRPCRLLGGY

[4] = system: MC1R; conditions: MC1R antagonist; cited from earlier work
[5] = biological target: mouse melanocortin 1 receptor (mouse) (UniProt Q01727)
mouse melanocortin 1 receptor (mouse), sequence (Q01727 whole entry): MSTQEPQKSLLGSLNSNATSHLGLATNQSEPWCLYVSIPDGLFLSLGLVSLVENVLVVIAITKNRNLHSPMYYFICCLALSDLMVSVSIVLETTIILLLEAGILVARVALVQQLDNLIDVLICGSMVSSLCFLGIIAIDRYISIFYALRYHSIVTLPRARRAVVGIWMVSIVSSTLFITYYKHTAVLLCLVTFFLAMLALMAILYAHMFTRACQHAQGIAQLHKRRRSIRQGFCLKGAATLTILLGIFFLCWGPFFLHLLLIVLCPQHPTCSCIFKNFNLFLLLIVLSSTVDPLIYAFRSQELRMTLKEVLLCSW

[6] = biological target: mouse melanocortin 4 receptor (mouse) (UniProt P56450)
mouse melanocortin 4 receptor (mouse), sequence (P56450 whole entry): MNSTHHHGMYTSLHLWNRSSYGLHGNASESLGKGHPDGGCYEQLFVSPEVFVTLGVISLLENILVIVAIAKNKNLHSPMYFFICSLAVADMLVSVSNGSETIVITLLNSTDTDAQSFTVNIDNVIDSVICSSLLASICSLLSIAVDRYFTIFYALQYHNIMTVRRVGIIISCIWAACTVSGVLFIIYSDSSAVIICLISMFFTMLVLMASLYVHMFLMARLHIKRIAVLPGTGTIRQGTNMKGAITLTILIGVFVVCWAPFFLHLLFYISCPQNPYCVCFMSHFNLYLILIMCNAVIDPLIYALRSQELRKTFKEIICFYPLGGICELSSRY

[7] = biological target: mouse melanocortin 3 receptor (mouse) (UniProt P33033)
mouse melanocortin 3 receptor (mouse), sequence (P33033 whole entry): as the sequence (P33033 whole entry) above

[8] = biological target: mouse melanocortin 5 receptor (mouse) (UniProt P41149)
mouse melanocortin 5 receptor (mouse), sequence (P41149 whole entry): as the sequence (P41149 whole entry) above

[9] = biological target: mMC1R (Mus musculus, UniProt Q01727); conditions: cited from earlier work
mMC1R, sequence (Q01727 whole entry): as the sequence (Q01727 whole entry) above

[10] = system: K5-noggin mice; conditions: administered intracutaneously; cited from earlier work
[11] = biological target: hMC1R; conditions: read-out: antagonist Ki hMC1R; competitive antagonist; cited from earlier work

| Molecule | agonist EC50, cAMP AlphaScreen on HEK293 cells expressing the receptor [6] | agonist EC50, cAMP AlphaScreen on HEK293 cells expressing the receptor [7] | agonist EC50, cAMP AlphaScreen on HEK293 cells expressing the receptor [8] | other results |
| --- | --- | --- | --- | --- |
| CC(=O)N[C@H](Cc1ccc(I)cc1)C(=O)N[C@@H](CCCNC(=N)N)C(=O)N[C@@H](Cc1ccc2ccccc2c1)C(=O)N[C@@H](Cc1c[nH]cn1)C(N)=O [Peptide 12, Ac-DPhe(pI)-Arg-Nal(2’)-His-NH2] (Ac-[dPhe(4-I)]R[2Nal]H-NH2) |  |  |  | percent maximal stimulatory response (compared to NDP-MSH) observed at 100 μM, mMC3R [1]: 35% @ 100 μM |
| CC(=O)N[C@H](Cc1ccc(I)cc1)C(=O)N[C@@H](CCCNC(=N)N)C(=O)N[C@@H](Cc1ccc2ccccc2c1)C(=O)N[C@@H](CCCN)C(N)=O [Peptide 14, Ac-DPhe(pI)-Arg-Nal(2’)-Orn-NH2] (Ac-[dPhe(4-I)]R[2Nal][Orn]-NH2) |  |  |  | body weights compared to vehicle [2]: not statistically significantly different |
| Ac-Nle-c[Asp-(1-Me)His-DNal(2’)-Arg-DNal(2’)-Lys]-NH2 |  |  |  | Ki [3]: 0.063 µM |
| Ac-[Nle]DW[dF][Nle]WK-NH2 |  |  |  | pA2 in the frog skin assay [4]: 8.4 |
| Ac-[dPhe(4-I)]E[2Nal]R-NH2 | > 100 µM | > 100 µM | > 100 µM | agonist EC50, cAMP AlphaScreen on HEK293 cells expressing the receptor [5]: > 100 µM |
| Ac-[dPhe(4-I)]H[2Nal]R-NH2 | > 100 µM | > 100 µM | > 100 µM |  |
| Ac-[dPhe(4-I)]K[2Nal]R-NH2 | > 100 µM | > 100 µM | > 100 µM |  |
| Ac-[dPhe(4-I)]R[2Nal]E-NH2 | > 100 µM | > 100 µM | > 100 µM | agonist EC50, cAMP AlphaScreen on HEK293 cells expressing the receptor [5]: > 100 µM |
| Ac-[dPhe(4-I)]R[2Nal]H-NH2 | > 100 µM |  | > 100 µM |  |
| Ac-[dPhe(4-I)]R[2Nal]K-NH2 | > 100 µM | > 100 µM | > 100 µM |  |
| Ac-[dPhe(4-I)]R[2Nal]R-NH2 |  |  | > 100 µM |  |
| Ac-[dPhe(4-I)]R[2Nal][Cit]-NH2 | > 100 µM | > 100 µM | > 100 µM | agonist EC50, cAMP AlphaScreen on HEK293 cells expressing the receptor [5]: > 100 µM |
| Ac-[dPhe(4-I)]R[2Nal][Dab]-NH2 | > 100 µM | > 100 µM | > 100 µM |  |
| Ac-[dPhe(4-I)]R[2Nal][Dap]-NH2 | > 100 µM | > 100 µM | > 100 µM |  |
| Ac-[dPhe(4-I)]R[2Nal][Orn]-NH2 | > 100 µM | > 100 µM | > 100 µM |  |
| Ac-[dPhe(4-I)]R[2Nal][dK]-NH2 | > 100 µM | > 100 µM | > 100 µM | agonist EC50, cAMP AlphaScreen on HEK293 cells expressing the receptor [5]: > 100 µM |
| Ac-[dPhe(4-I)]R[2Nal][dR]-NH2 | > 100 µM | > 100 µM | > 100 µM | agonist EC50, cAMP AlphaScreen on HEK293 cells expressing the receptor [5]: > 100 µM |
| Ac-[dPhe(4-I)]R[2Nal][hArg]-NH2 | > 100 µM | > 100 µM | > 100 µM |  |
| Ac-[dPhe(4-I)][Cit][2Nal]R-NH2 | > 100 µM | > 100 µM | > 100 µM |  |
| Ac-[dPhe(4-I)][dK][2Nal]R-NH2 | > 100 µM | > 100 µM | > 100 µM | agonist EC50, cAMP AlphaScreen on HEK293 cells expressing the receptor [5]: > 100 µM |
| H-YERFFNAF[Dap]Y-NH2 (lactam 2-9) |  |  |  | pA2 mMC1R [9]: 5.92; Ki ([9]; read-out: antagonist Ki mMC1R): 1.2 µM; coloration of K5-noggin mice [10]: restored wild-type coloration |
| c[Gly-Cpg-DNal(2’)-Arg-Trp-Glu]-Val-Val-Gly-NH2 |  |  |  | Ki [11]: 0.053 µM |
